Laboratory results taken from patent US20250206828A1, “ANTI-ADENOSINE RECEPTOR (A2aR) ANTIBODIES AND THE USE THEREOF” (Adept Therapeutics Inc., priority 2022, published 2025).
Positions count from the first letter of the chain named. In names and notes the source's numbering stands. Read-outs that look alike come from different tables or passages of the source.

How the values were obtained:
[1] = tested on: human PBMCs (CD4 and CD8 T cells); assay: Restoration of CD25 and CD69 activation markers on NECA-suppressed CD4 and CD8 T cells; format: cell-based
Procedure: (§1) Two hundred thousand (2×10^5) human peripheral blood mononuclear cells (PBMCs) human PBMC in complete IMDM medium were aliquoted into each well in a 96-well plate and the cells in the 96-well plate were pre-incubated with antibodies or small molecule inhibitors at indicated concentration for 90 minutes, followed by addition of T cell activator anti-CD3/28 dynabeads (Gibco, Cat #11132D) at ratio of 1:4 (Beads: PBMC, v/v) and NECA (DiscoverX, Cat #92-1191, final concentration […]). Cells were cultured in an incubator at 37° C., 5% CO2 for 24 hours. Cells were then collected and stimulated with anti-CD3/28 dynabeads in the presence of GolgiPlug™ Protein Transport Inhibitor (BD Biosciences, Cat #555028) according to manufacturer's manual for 4 hours. Thereafter, cells were incubated with human TruStain FcX block (Biolegend, Cat #422302) and True-Stain monocyte blocker (Biolegend, Cat #426103) for 15 minutes according the manufacturer's manual, and cells were then stained with surface markers PE-anti-CD4 (Biolegend, Cat #300550), PerCP-cy5.5-anti-CD8 (Biolegend, Cat #301032), APC/cy7-anti-CD3 (Biolegend, Cat #300426) and PE/cy7-anti-CD56 (Biolegend, Cat #362509), PE/cy7-anti-CD56 (Biolegend, Cat #362509), BV711-anti-CD25 (Biolegend, Cat #302636) and BV605-anti-CD69 (Biolegend, Cat #31938 After wash with FACS buffer, cells were stained with BV421-anti-IFN-γ (BD Bioscience, Cat #562988) and APC anti-IL-2 (BD Bioscience, cat #551383) using intracellular cytokine staining kit (BD Biosciences, cat #555028) following manufacturer's instruction. Stained samples were analyzed on FACSAria III machine. Data were analyzed using Flowjo software.

[2] = target: T1, human A2aR-expressing CHO cells (Homo sapiens, UniProt P29274); assay: pH-sensitive dye (Zenon pHrodo iFL RED) based internalization assay; format: cell-based; conditions: 24 hours
T1 construct: expressed in transfected cells; host or cells: CHO
Source text: The Invitrogen™ Zenon™ pHrodo™ iFL RED human IgG Labeling Reagents (Cat. Z25612) Z25612) is low-pH sensitive dye and was used to determine the internalizing properties of the exemplary anti-A2aR antibodies following manufacture's instruction. The internalization of antibodies coupled with the Zenon™ pHrodo™ iFL RED human IgG Labeling reagents increase the fluorescence signal at low pH intracellular compartment in a cell, providing a method for visualizing internalization under fluorescent microscopy.
Twenty-five microliters (25 μL) of 4× working solution of Zenon™ pHrodo™ iFL IgG Labeling Reagent were also prepared in freestyle CHO expression medium and then added to each well of a 96-well plate containing antibodies. The solutions in the 96-well plate were mixed and incubated for 5 minutes at room temperature to allow the labeling complexes to form. Afterwards, fifty microliters (50 μl) of 2×10^6/ml human A2aR-expressing CHO cells were added to each well containing labeled antibodies. Cells were then incubated with the labeling complex for 24 hours under standard cell culture conditions. Cells were analyzed under immunofluorescent microscope (Invitrogen EVOS cell imaging system M5000) to visualize the internalization of antibodies by cells. Internalization of antibody was imaged using EVOS imaging systems (Invitrogen).

[3] = tested on: human PBMCs (CD4 T, CD8 T, NK cells); assay: Restoration of IFN-γ and IL-2 production of NECA-suppressed T cells and NK cells (intracellular cytokine staining); format: cell-based; conditions: NECA
Procedure: as §1

[4] = target: T2, human adenosine A2A receptor (A2aR) (human, UniProt P29274 1-412); assay: cell-based or functional assay
[5] = target: cynomolgus adenosine A2A receptor (A2aR) (cynomolgus); assay: flow cytometry on PBMC, donor Cynomolgus 2
[6] = target: T2, human adenosine A2A receptor (A2aR); assay: flow cytometry, HEK293-hA2aR cells, supernatant 1 ug/ml
[7] = target: T2, human adenosine A2A receptor (A2aR); assay: flow cytometry titration, HEK293-hA2aR cells, purified antibody
[8] = target: T2, human adenosine A2A receptor (A2aR); assay: cell-based or functional assay; remark: listed apart in the source
[9] = target: cynomolgus adenosine A2A receptor (A2aR) (cynomolgus); assay: flow cytometry on PBMC, donor Cynomolgus 1
[10] = target: T2, human adenosine A2A receptor (A2aR); assay: cell-based or functional assay; remark: listed apart in the source
[11] = target: T2, human adenosine A2A receptor (A2aR); assay: flow cytometry, HEK293-hA2aR cells, supernatant 1 ug/ml, average of quadruplicate
[12] = target: T2, human adenosine A2A receptor (A2aR); assay: flow cytometry, HEK293-hA2aR cells, supernatant 1 ug/ml, average of triplicate
[13] = target: T2, human adenosine A2A receptor (A2aR); assay: flow cytometry on PBMC, donor human 1
[14] = target: T2, human adenosine A2A receptor (A2aR); assay: flow cytometry on PBMC, donor human 2
[15] = target: T2, human adenosine A2A receptor (A2aR); assay: flow cytometry titration, HEK293-hA2aR cells, purified antibody, average of 7 repeats

T2 sequence (P29274 whole entry): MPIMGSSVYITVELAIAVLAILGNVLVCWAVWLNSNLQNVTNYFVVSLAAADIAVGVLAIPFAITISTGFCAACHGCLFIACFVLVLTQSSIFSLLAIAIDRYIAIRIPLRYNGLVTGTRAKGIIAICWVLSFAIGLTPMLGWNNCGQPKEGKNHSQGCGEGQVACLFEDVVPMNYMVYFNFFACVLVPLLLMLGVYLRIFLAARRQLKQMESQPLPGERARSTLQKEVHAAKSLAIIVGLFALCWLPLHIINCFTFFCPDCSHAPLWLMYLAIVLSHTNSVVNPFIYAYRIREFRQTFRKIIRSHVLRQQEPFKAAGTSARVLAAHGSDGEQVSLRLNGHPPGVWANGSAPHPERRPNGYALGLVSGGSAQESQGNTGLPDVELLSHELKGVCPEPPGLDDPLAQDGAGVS
T1 sequence (P29274 whole entry): as above

Cc1c(C#N)cccc1-c1cc(-c2cn(Cc3cccc(C(C)(C)O)n3)nn2)nc(N)n1 [AB928]
% of cells CD25+, CD4 T cells ([1]; test substance 1 μg/ml): 59.7% | % of cells CD25+, CD8 T cells ([1]; test substance 1 μg/ml): 32.7% | % of cells CD69+, CD4 T cells ([1]; test substance 1 μg/ml): 57.6% | % of cells CD69+, CD8 T cells ([1]; test substance 1 μg/ml): 55.3% | induction of internalization (pHrodo fluorescence microscopy, FIG. 3) [2]: did not induce internalization | % of cells IFNγ+, CD4 T cells ([3]; test substance 1 μg/ml): 4.07% | % of cells IFNγ+, CD8 T cells ([3]; test substance 1 μg/ml): 14.4% | % of cells IFNγ+, NK cells ([3]; test substance 1 μg/ml): 15% | % of cells IL-2+, CD4 T cells ([3]; test substance 1 μg/ml): 13.1% | % of cells IL-2+, CD8 T cells ([3]; test substance 1 μg/ml): 3.15%

Cc1ccc(-c2nc(N)nc3c2nnn3Cc2cccc(CO[C@H]3CCOC3)n2)o1 [CPI-444]
% of cells CD25+, CD4 T cells ([1]; test substance 2 μg/ml): 62.9% | % of cells CD25+, CD8 T cells ([1]; test substance 2 μg/ml): 35.9% | % of cells CD69+, CD4 T cells ([1]; test substance 2 μg/ml): 52.3% | % of cells CD69+, CD8 T cells ([1]; test substance 2 μg/ml): 52.3% | induction of internalization (pHrodo fluorescence microscopy, FIG. 3) [2]: did not induce internalization | % of cells IFNγ+, CD4 T cells ([3]; test substance 2 μg/ml): 3.66% | % of cells IFNγ+, CD8 T cells ([3]; test substance 2 μg/ml): 11.6% | % of cells IFNγ+, NK cells ([3]; test substance 2 μg/ml): 15.1% | % of cells IL-2+, CD4 T cells ([3]; test substance 2 μg/ml): 12.7% | % of cells IL-2+, CD8 T cells ([3]; test substance 2 μg/ml): 3.05%

B1: Hu3F6-H5/Hu3F6-L5 (antibody, human IgG1, V domains shown)
VH: EVQLVQSGAEVKKPGASVKVSCKTSGFAFTSYWMNWVRQAPGQGLEWIGRIDPSDSEAHYAHKFWGRATLTVDKSSSTVYMELSSLRSEDTAVYYCLRSLYGKGDYWGHGTTVTVSS
VL: DVVMTQTPLSLSVTPGQPASISCRSSQSLVHRNGNTYLEWYLQKPGQSPQLLIYKVSNRFSGVPDRFSGSGSGTDFTLKISRVEAEDVGVYYCYQGSHVPLTFGGGTKVEIK
notes: Human IgG1 FES (L234F, L235E, P331S) and human Ig kappa constant domains; also called Hu3F6 VH5/VL5; Hu3F6-VH5/VL5
IC50 of blocking activity, cAMP-Glo, 300 nM NECA, HEK293-hA2aR cells, supernatant [4]: 0.9 nM | % of A2aR+ CD4+ T cells [5]: 10.6% | % of A2aR+ CD8+ T cells [5]: 0.41% | % of A2aR+ NK cells [5]: 2.92% | % of A2aR+ NKT cells [5]: 4.28% | MFI [6]: 1850 MFI | EC50 [7]: 0.59 nM | IC50 of blocking activity, cAMP-Glo, 1.25 uM NECA, HEK293-hA2aR cells, purified antibody [8]: 0.6 nM | IC50 of blocking activity, cAMP-Glo, 5 uM Adenosine, HEK293-hA2aR cells, purified antibody [8]: 0.8 nM | % of A2aR+ CD4+ T cells [9]: 4.76% | % of A2aR+ CD8+ T cells [9]: 0.15% | % of A2aR+ NK cells [9]: 5.71% | % of A2aR+ NKT cells [9]: 4.14%

B2: 3F8-12E9 (antibody, from another filing, V domains shown)
VH: QVQLQQPGTELVKPGAPVKLSCKASGFTFTRYWMNWVKQRPGRGLEWIGRIDPSDSETHYNHKFWGKATLTVDKSSSTAYIQLNSLTSEDSAVYYCLRSLYGKGDYWGQGTTLTVSS
VL: DVLMTQTPLSLSVGLGDQASISCRSSQSIVHSNGNTYLEWYLQRPGQSPKLLIYKVSNRFSGVPDRFSGSGSGTDFTLKISRVEAEDLGVYYCYQGSHVPLTFGSGTKLEIK
IC50 of blocking activity, cAMP-Glo, 300 nM NECA, HEK293-hA2aR cells, supernatant (average of triplicate) [10]: 1 nM | MFI [11]: 1920 MFI | EC50 [7]: 0.48 nM

B3: 1B5-3D7 (antibody, from another filing, V domains shown)
VH: B2 VH with A24T, Y32F, K38R, S54Y, H59Q, G66D, K67R, A79V, N84S, L97G
VL: B2 VL with T7S, S12P, G14S, D75Y, K79R, V90I, Y94F, K108T, I111L
MFI [12]: 1960 MFI

B4: 3F6-9G5 (antibody, from another filing, V domains shown)
VH: B2 VH with K19R, T28A, R31S, K38R, T58A, N61H, A79V, S85G, Q109H
VL: B2 VL with G14R, I29L, S32R
MFI [12]: 2040 MFI | % of A2aR+ CD4+ T cells [13]: 0.67% | % of A2aR+ CD8+ T cells [13]: 0.06% | % of A2aR+ NK cells [13]: 1.15% | % of A2aR+ NKT cells [13]: 0.62% | % of A2aR+ CD4+ T cells [5]: 3.26% | % of A2aR+ CD8+ T cells [5]: 0.14% | % of A2aR+ NK cells [5]: 2.63% | % of A2aR+ NKT cells [5]: 1.14% | % of A2aR+ CD4+ T cells [14]: 0.48% | % of A2aR+ CD8+ T cells [14]: 0.03% | % of A2aR+ NK cells [14]: 0.99% | % of A2aR+ NKT cells [14]: 0.47% | IC50 of blocking activity, cAMP-Glo, 300 nM NECA, HEK293-hA2aR cells, supernatant (average of triplicate) [10]: 1.3 nM | IC50 of blocking activity, cAMP-Glo, 1.25 uM NECA, HEK293-hA2aR cells, purified antibody [10]: 0.53 nM | IC50 of blocking activity, cAMP-Glo, 5 uM Adenosine, HEK293-hA2aR cells, purified antibody [10]: 0.93 nM | % of A2aR+ CD4+ T cells [9]: 1.36% | % of A2aR+ CD8+ T cells [9]: 0.06% | % of A2aR+ NK cells [9]: 3.34% | % of A2aR+ NKT cells [9]: 0.85% | EC50 [15]: 0.71 nM
